The data set can be described thus: soluble fraction after stress (log2 fold change); higher = more stays soluble; pooled small domains, quantitative proteomics. The following applies: stress: 50 degC. The method, boiled down: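 Pooled custom libraries of small protein domains were each held under stress at 50°C. The read-out, high-throughput quantitative proteomics, tracked how much of each protein stayed soluble. This is reported as a base-two log fold change used to indicate aggregation propensity. Higher values mean more protein remains in solution.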
With “HMDGTAKVAHMLVNELETFNRLKKHEIAYMLHIQPETLSRILNKLTRNGTIEIEKNSVVILNIQELKEIY”, the “soluble fraction (log2)” value was -1.55.
On to “HMDGVNRDKIEYRLDDLYYLKGSDAPYTGKVFEEWSGQQRVETNYIDGKLDGLSESWHENGQKASEVNY”, for which the “soluble fraction (log2)” value came to 0.345.
In the case of “HMDHFLRRFQVEGLNLEKLLRLAAEREMDLLQVRRSGRRMTGLVAEKRLPELEELAAQGGWALRLGEY”, the “soluble fraction (log2)” value is -0.268.
The figure for “HMDHSSLIKKLRLERGLSQKKLAQGISQRSTLASFENNATKISYNILIQYLDRMNVTLEEYQFMLDGNNL” is -2.06; for “HMDHWQSVNSALELLEVSRRTLYDYISRKKLQTKKEGKYRYVWIDDDVIEEIKTSKSAYIEINN” it is -2.19; for “HMDIAATTVKQKIRTLLADEDAARPLSDQKIADALAEDGIDVARRTVAKYREELGIEPSWARKR” it is 0.0398.
The figure for “HMDIDLGAVEEQAVKGSGPGGQKMNKTSSGVLLRYRLGEELVLVKWTRERQHSLNRFLALRELVDEIEAR” is not below 0.62.
For “HMDIFFEKIFNILIGYNQNQENLISEKSILNFHLSHKSNSNFEYIPDEKTPKYIWKYLSNYNLLE”, the “soluble fraction (log2)” value is -0.359.
“HMDIFLPDVKGYDLIPSFRRHLPDIDVIAMTGYNTRALESAVRQQDVLFYMIKPFEASQLKEILEHLVK”: the “soluble fraction (log2)” value was -0.221.
In the case of “HMDIKEIIKNRRIELGLTLKEVATAVGVSEGTVSRWESGNITNMKRNKIAALAKTLQIPPTTI”, the “soluble fraction (log2)” value is -0.259.
With “HMDIKKHISATLKREMEKRGLNFMEFSTELGIPRTTLQGYLKGTSSPQADSLEELADKLGISPAELVSG”, the “soluble fraction (log2)” value came to 0.15.
Consider “HMDIMLLLYKNIKKRRLEIGMSQEELAQKTGYTSRSSIAKIEKGEVDLQLSKIKLFANALRVSQSELMG”, for which the “soluble fraction (log2)” value was -3.39.
As to “HMDIMTVGERVKKLAEKQGISLRELAKKAELSYNTVYSITRRGSERVAPDTISRLANALGVNVNELT”, the “soluble fraction (log2)” value turned out to be 0.0708.
For the sequence “HMDINEIILKVASEKKTFKTSDVLEALDNNYTKQHVSALISAMVKKGILVKAGSTAKSTYALPENASLL”, the “soluble fraction (log2)” value is -0.264.
For “HMDINIETLNYYVGKAKIPLSELRISVKNIDLFLSGEKQPTFNQLSSIAKKLNIPTGLLLLDESIEV”, the “soluble fraction (log2)” value was -2.74.
For the sequence “HMDIPGITAVKPQAAFYMFPKIDVKKFNIVNDEKFALDLLQDKKILIVQGSGFNWKQPDHFRVV”, the “soluble fraction (log2)” value was -0.103.
On to “HMDIRVAHVDDDMSFGEAFAQARSQVGPGGVFEWHGKLYGTYTAEEWASMSPAERSQYQQAVFN”, for which the “soluble fraction (log2)” value is -0.0545.
Then “HMDIVLPFSFAKRHGVVLSERQGETELLYLKGLPVRVLAEARRVLRQEFTVRQVEQAVFDKALSESYQN”, with -1.04; and “HMDIYLDDINRKILHLLSQGVKTKSLRDYIDLSMSAIEKRKKHLKDLFLIEDGKDETLLSEARKKGF”, with -0.672.
Then “HMDKAGWLPARVRLADYPALKQLAWQVQGVDELTPREALGIYERNWRHLDEAALLPRERNLIDALRLAFG”, with -0.207; and “HMDKEQVTFIFRDIDIALRSLDYPIKDIKNTLNIIKSEFSNSKSTELNEQKINFENILKEAISILENND”, with -0.627.
Turning to “HMDKFKDVGARIREARKVQKLSQADLAERLQISTSHMSDIENGKKNIGLDIFMRLTEALQVSADWLL”, the “soluble fraction (log2)” value is -0.124.
For “HMDKFTYVVKKEDEQYQIKDILRHNFTFSSRLRKKLKQNNSIFLNGAETVGWATPKEGDIISVRLP”, the “soluble fraction (log2)” value was -0.433.
As to “HMDKKEFGKRLKNLRIRNKMSQQAMADSLGYTSRSTINKIEEGINEMSYDKIVRLMELYGLSRPDLGLEPI”, the “soluble fraction (log2)” value is -0.154.
For the sequence “HMDKKTMFNEALAKLVSYATAHDNLITMEDVKSFFNGLIDDDSQYKLIYDYLSINKIEIKGFT”, the “soluble fraction (log2)” value was found to be 0.2.
Take “HMDKLEKRILDYLLQKSAIDGSTILKISHREMAMDLGTAREVVTRILKKLETGGFVRQGENYLEILK”: the “soluble fraction (log2)” value was -0.145.
The figure for “HMDKPIFTLRENEVLYWASMGKTYAEIATIVGISVRTVKFHMGNVVSKLGVSNARQAIRLGVELDLITPMQ” is -2; for “HMDKSFYETFEKIGHGDFDKGLNHVWQHANDGNGTATLLLSKLFLEFGDLDNFEKYLNISAEQSNPVAMKI” it is -0.305; for “HMDKSNEVLMNHYRKQEINQAKKRLEEEKMSIIQVLQLTNKEVITTDELLEALYISKEQLLDEIINTTQ” it is -0.0889.
Regarding “HMDKSPVLQLNRDVPAGQQISADDFRTVEIGADGAFRSVPSSDLNAMVGSYAKVRLIAGTLLAREALQSG”, the “soluble fraction (log2)” value was 0.0412.
Then “HMDKSRPVLRVGDSGDWVSKLQTALLEFGYRVAVDGVFGEHTKSAVVHFQNGRRLIADGVVGNLTWDALL”, with -2.31; and “HMDKWFPVSSDHKVQVGDYLRTADGLVKVEATHNEYGTFYGKIITAIHDDVVKGETYEYRIDDVQVLA”, with -0.0324.
Regarding “HMDLAPLQTVDIAINYAKAAELAAILKSSEGGILSDRGGVTVDERTNTLLIRDTLESIDEARKTI”, the “soluble fraction (log2)” value is 0.122.
In the case of “HMDLATQHAAKVNAAILAARRFEREGSWRQVAAKYSEALQLMPGNEQASRGYQQAMAMLDERD”, the “soluble fraction (log2)” value stood at 0.0786.
Then “HMDLDSGVAVLRTLMSQHNLQTDDFQNEIGGKSMVSMILNGTRKLSKNHIQALSGRFNLSPALFF”, with -0.962; and “HMDLEELSNKMNNVFESLSSDLRDIIIMSDIEGLSYEEISHKINIPIGTVRSRLHRARDLMVRVIKEN”, with -0.513.
Then “HMDLGEQIIEKLRAAGGFLAITDKSPAEEIYELFATSKKNYKKAVGGLYKKGLLVIEDDGIRLTPAGR”, with -0.102; and “HMDLHERISSVLLGTGKSNDELAQILGVNKNTISAYKNKHGDLKGIVLEGIVKHFDINPVWLLTGSGTR”, with -0.54; and “HMDLKSLEFAIVENVQRHDLNPLEEAQGYKRLIDEFSYDQDKVSKFIGKSRSYITNSLRLLNLPLEVLEF”, with -0.049.
Consider “HMDLKTNSQLINELEKKIKRPFDREIKNYLNKNLSTDRMISNNEIDKIILFYSGNNEIPNIEKISLILNDN”, for which the “soluble fraction (log2)” value is -0.112.
For the sequence “HMDLPATVPNLEGLTEVTARNKLTVAGLSLGEVKEVESDKEKGTVVGQSIAYGKRVTKGTKVDIEISSGK”, the “soluble fraction (log2)” value came to 0.0361.
For “HMDLPDTLSMPNALKVLEDNGFPTSKAKLYKMTSQEQIPFMKYGNKLVFSRKALIEWAHKQLV”, the “soluble fraction (log2)” value was -1.1.
Regarding “HMDLPREKRIEIGLTYIYGIGLKTSQKILAATGIDPNTRVKDLDETTVSKLREYIDHNYRVEGELRS”, the “soluble fraction (log2)” value was -0.504.
With “HMDLSLQTFNELKTELTNNKITIDQFSEKINEFDITSDIFEISRELFLDDTLSLEDYLVVIENVLIN”, the “soluble fraction (log2)” value was -0.45.
Then “HMDLSQTVQAKALARVNVREGAGTHFKSLGKLKKGELLPVFRVGNSWASIWWKGRVAYVHTDYLRFESA”, with -0.847.
On to “HMDLTKLFDHDSEYGKSYVFGKITDEMIARAEQTLGYRMPASYIELLKVQNGGMISDELDESWLTTIYGIG”, for which the “soluble fraction (log2)” value is -0.24.
The figure for “HMDMAYEVVKAFHDLQDYKDVKGGKVYHHYDVGDTYPRQGLDPAPDETRIEELLSSGNAQGVPLIAEV” is 0.0503; for “HMDMNVQNYRGLSLDRAKKLISDLGLKYEVVGTGDSVVKQVPSSGSRMSKENGRIILYTENVEDA” it is 0.00608; for “HMDMPLIGTAIRGWGIISPAQQETLIKMSILTVEDLAAINDEGIKRIGMGGLDLKNKAKAWLLQLK” it is -0.751.
As to “HMDMRLADLIGRDGITITFMRPSGKVEIDGEIYDAVSDVGLIDKNEEVEVIKFENAQLVVTKKNKN”, the “soluble fraction (log2)” value is -0.0621.
As for “HMDMSVDQFNQGIRGSELYQQFIHGRGLQQPDGKTREWTDADRNAWRRTLEASGVRIPDGMKIDNAGNLNE”, the “soluble fraction (log2)” value is 0.275.
In the case of “HMDNEIIEEEKITTLMITHNMRDAIKYGNRLIMLNEGRVIFDISGEEKKNLTVQELLEKFEK”, the “soluble fraction (log2)” value is -0.118.
Then “HMDNEIMYPIQINGKVRAELFVSTERAMDKQYVLEQAKANEKIQGYLEGNRLVKEIFVPKRIVNLVIAP”, with 0.197; and “HMDNIEIGNRIREIRIKKNISVFELAYRTKTSQSHIYQIEGGSQNMSIELLFKIADTLETDPNTILGV”, with -3.78; and “HMDNIPAHIKAKIINYVNRNYPGAIIKDIERKSNGRYEAEIVYNNREYDLLFDAQGNFISASLDDK”, with 0.123.
Regarding “HMDNNFIQSLYPIAIGISKNQLDPWDLINGWVEYYLKNKEKYINHPNLKAVAVLKMKGLLIDHFRKS”, the “soluble fraction (log2)” value is -3.57.
Consider “HMDNPKGNLQEAVQAKGNEPIEYRVLNVDGPDHAREFKIAVFIGGKRKGTGVGNSKKKAEEIAAEKAFKRM”, for which the “soluble fraction (log2)” value was found to be 0.127.
For the sequence “HMDNPVPVIITDQNFQPQLWKNVGVPTDTLFHELSAANQRKLENLMKTMIQTPLTDNGKISGYAFYSK”, the “soluble fraction (log2)” value amounted to 0.0665.
For the sequence “HMDNREKLRQEFLENLKELQEQNDIPQQEIDRVILDYDGVAEFLEDEGALKRYGGQLVDMTAYRAGAIPS”, the “soluble fraction (log2)” value was -0.0987.
Regarding “HMDNRLFKMLYYLLDKERATAPELAAEFEVSTRTIYRDVEALSSAGIPIYAEPGRNGGIYLLQD”, the “soluble fraction (log2)” value is -2.21.
Turning to “HMDNTSNVEKTLRFIRQRGKVSRKEVETLLGSSKFPAISALNELLAENKIVKTGSGPAVRYSVS”, the “soluble fraction (log2)” value was -0.0887.
On to “HMDNVINDGMQVRFTGNVDINGTPLKIYDRIYTAEGISDDTVVLMLGNDVYARVYLSDVVPAD”, for which the “soluble fraction (log2)” value is -0.405.
With “HMDNWLSGLAVEADRMILTQPGEVFDRLSRAFEATLIRRALASTGGRRIEAAHLLGIGRNTITRKIQDLGL”, the “soluble fraction (log2)” value is -2.49.
As to “HMDPDARQDAEVWLLDFLSAGPRTAQEIFTAARVEGHTRVTVKRAKATAGIQSVKQDFDGPWVWVLPGSG”, the “soluble fraction (log2)” value was -0.491.
For the sequence “HMDPFAYEVKVTDLAAGSSEIRTVYTEQGSFNIPSGMSGNLKIQVRSASMYDEVEPSDWYTIGEEDIN”, the “soluble fraction (log2)” value is -0.0779.
Take “HMDPLASLTPREREVLSLMAQGLSNLAVAERLVVSAGAVEKHISSIFTKLDLAPSEHEHRRVLAVLRYVAG”: the “soluble fraction (log2)” value was -3.2.
For “HMDPPISNDARNAINAKLMKFSELHPNEMKKLVEAYKKEFKVSKISPITLARQGEFLSHAISKIDDT”, the “soluble fraction (log2)” value worked out at 0.0248.
In the case of “HMDPQDGTVKFFNGARGFGFITPDGGGADVFVHVSAVERAGLTQLVEGQRVNFQTLPDTKGKGPKAVNLKV”, the “soluble fraction (log2)” value was 0.0729.

The values above are taken from the domain aggregation screens of Martell et al. (2025).
